Measurements: patent US20240252614A1 (Pfizer, published 2024)

Key:
hMPV078 = target: T1, hMPV078 (hMPV A, UniProt Q6WB98 19-102); assay: BLI, no stress
T1 construct: T411C-Q434C, A140C-S149C
Protocol: (§1) The OCTET HTX (Sartorius, Gottingen, Germany) instrument was used to evaluate the expression and conformational integrity for each mutant. All measurements were conducted at 30° C. temperature in 96-well black plates (Corning, Corning, NY) with a final volume of 240 μL per well at a constant agitation rate of 1000 RPM.
(§2) Conformation integrity of hMPV A F protein mutants were evaluated by thermal stress experiments. Crude cell culture supernatants were normalized based on the results of the titer quantitation and then incubated for 1 hour at room temperature and two higher temperatures. […] Anti-Human IgG Fc Capture (AHC) biosensors were first equilibrated in PB before being dipped into more PB to establish the initial baseline. […] The mAb-bound biosensors were then dipped into the thermal stressed cell culture supernatants for 5 minutes. The kinetics analysis was done by OCTET data analysis software (version 12.0, Sartorius) based on curve fitting of the entire associate step.

hMPV079 = target: T2, hMPV079 (hMPV A, UniProt Q6WB98 19-102); assay: BLI, no stress
T2 construct: T411C-Q434C, A140C-S149C, A459P
Protocol: as §1, §2

hMPV081 = target: T3, hMPV081 (hMPV A, UniProt Q6WB98 19-102); assay: BLI, no stress
T3 construct: T411C-Q434C, A140C-S149C, T365I
Protocol: as §1, §2

hMPV082 = target: T4, hMPV082 (hMPV A, UniProt Q6WB98 19-102); assay: BLI, no stress
T4 construct: T411C-Q434C, A140C-S149C, G239A
Protocol: as §1, §2

hMPV083 = target: T5, hMPV083 (hMPV A, UniProt Q6WB98 19-102); assay: BLI, no stress
T5 construct: T411C-Q434C, A140C-S149C, A459P, G239A, T49I, T365I
Protocol: as §1, §2

hMPV084 = target: T6, hMPV084 (hMPV A, UniProt Q6WB98 19-102); assay: BLI, no stress
T6 construct: T411C-Q434C, L141C-A161C
Protocol: as §1, §2

hMPV085 = target: T7, hMPV085 (hMPV A, UniProt Q6WB98 19-102); assay: BLI, no stress
T7 construct: T411C-Q434C, L141C-A161C, A459P
Protocol: as §1, §2

hMPV086 = target: T8, hMPV086 (hMPV A, UniProt Q6WB98 19-102); assay: BLI, no stress
T8 construct: T411C-Q434C, L141C-A161C, T49I; also called hMP0086
Protocol: as §1, §2

hMPV087 = target: T9, hMPV087 (hMPV A, UniProt Q6WB98 19-102); assay: BLI, no stress
T9 construct: T411C-Q434C, L141C-A161C, T365I
Protocol: as §1, §2

hMPV088 = target: T10, hMPV088 (hMPV A, UniProt Q6WB98 19-102); assay: BLI, no stress
T10 construct: T411C-Q434C, L141C-A161C, G239A
Protocol: as §1, §2

hMPV089 = target: T11, hMPV089 (hMPV A, UniProt Q6WB98 19-102); assay: BLI, no stress
T11 construct: T411C-Q434C, L141C-A161C, S149T
Protocol: as §1, §2

hMPV090 = target: T12, hMPV090 (hMPV A, UniProt Q6WB98 19-102); assay: BLI, no stress
T12 construct: T411C-Q434C, L141C-A161C, A459P, G239A, T49I, S149T, T365I
Protocol: as §1, §2

hMPV097 = target: T13, hMPV097 (hMPV A, UniProt Q6WB98 19-102); assay: BLI, no stress
T13 construct: T411C-Q434C, E146C-T160C, A459P, G239A, T49I, S149T, T365I
Protocol: as §1, §2

hMPV A F WT Control = hMPV A F WT Control (hMPV A, UniProt Q6WB98 19-102); assay: BLI, no stress
Protocol: as §1, §2

hMPV B F WT Control = hMPV B F WT Control (hMPV B, UniProt Q6WB98 19-102); assay: BLI, no stress
Protocol: (§3) All measurements were conducted at 30° C. temperature in 96-well black plates (Corning, Corning, NY) with a final volume of 240 μL per well at a constant agitation rate of 1000 RPM.
(§4) Conformation integrity of hMPV B F protein mutants were evaluated by a thermal stress experiment. Crude cell culture supernatants were normalized based on the results of the titer quantitation and then incubated for 1 hour at room temperature and two higher temperatures. For the testing of hMPV B single mutants, the two temperatures were 53° C. and 56° C. After the incubation, the protein mutants were probed with prefusion specific monoclonal antibody hMPV-2 by OCTET HTX. Anti-Human IgG Fc Capture (AHC) biosensors were first equilibrated in PB before being dipped into more PB for to establish the initial baseline. Biosensors were incubated with hMPV-2 before being equilibrated in PB to establish the experimental baseline. The mAb-bound biosensors were then dipped into the thermal stresses cell culture supernatants for 5 minutes.

hMPV100 = target: T14, hMPV100 (hMPV B, UniProt Q6WB98 19-102); assay: BLI, no stress
T14 construct: T411C-Q434C
Protocol: as §3, §4

hMPV101 = target: T15, hMPV101 (hMPV B, UniProt Q6WB98 19-102); assay: BLI, no stress
T15 construct: A140C-S149C
Protocol: as §3, §4

hMPV102 = target: T16, hMPV102 (hMPV B, UniProt Q6WB98 19-102); assay: BLI, no stress
T16 construct: L141C-A161C
Protocol: as §3, §4

hMPV103 = target: T17, hMPV103 (hMPV B, UniProt Q6WB98 19-102); assay: BLI, no stress
T17 construct: E146C-T160C
Protocol: as §3, §4

hMPV104 = target: T18, hMPV104 (hMPV B, UniProt Q6WB98 19-102); assay: BLI, no stress
T18 construct: A459P
Protocol: as §3, §4

hMPV105 = target: T19, hMPV105 (hMPV B, UniProt Q6WB98 19-102); assay: BLI, no stress
T19 construct: G239A
Protocol: as §3, §4

hMPV106 = target: T20, hMPV106 (hMPV B, UniProt Q6WB98 19-102); assay: BLI, no stress
T20 construct: T49I
Protocol: as §3, §4

hMPV107 = target: T21, hMPV107 (hMPV B, UniProt Q6WB98 19-102); assay: BLI, no stress
T21 construct: S149T
Protocol: as §3, §4

hMPV108 = target: T22, hMPV108 (hMPV B, UniProt Q6WB98 19-102); assay: BLI, no stress
T22 construct: T365I
Protocol: as §3, §4

hMPV047 = target: T23, hMPV047 (hMPV A, UniProt Q6WB98 19-102); assay: BLI, 50C stress, vs WT Control
T23 construct: L141C-A159C
Protocol: as §1, §2

PIV1042 = target: T24, PIV1042 (PIV1); assay: BLI, 56C stress;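 further: binding of thermally stressed PIV1 F mutant supernatant to mAb on AHC biosensors for 5 min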
T24 construct: Q92A
Protocol: as §3
(§5) Conformation integrity of PIV1 F protein mutants were evaluated by a thermal stress experiment. Crude cell culture supernatants were normalized based on the results of the titer quantitation and then incubated for 1 hour at room temperature and two higher temperatures. For the initial testing of PIV1 mutants, the two temperatures were 50° C. and 53° C. […] Anti-Human IgG Fc Capture (AHC) biosensors were first equilibrated in PB for before being dipped into more PB to establish the initial baseline. […] The mAb-bound biosensors were then dipped into the thermal stresses cell culture supernatants for 5 minutes.

PIV1043 = target: T25, PIV1043 (PIV1); assay: BLI, 56C stress;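 further: binding of thermally stressed PIV1 F mutant supernatant to mAb on AHC biosensors for 5 min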
T25 construct: Q92A, G134A
Protocol: as §3, §5

PIV1044 = target: T26, PIV1044 (PIV1); assay: BLI, 56C stress;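 further: binding of thermally stressed PIV1 F mutant supernatant to mAb on AHC biosensors for 5 min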
T26 construct: Q92L
Protocol: as §3, §5

PIV1045 = target: T27, PIV1045 (PIV1); assay: BLI, 56C stress;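 further: binding of thermally stressed PIV1 F mutant supernatant to mAb on AHC biosensors for 5 min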
T27 construct: Q92L, G134A
Protocol: as §3, §5

PIV1046 = target: T28, PIV1046 (PIV1); assay: BLI, 56C stress
T28 construct: A466V, S473V
Protocol: as §3, §5

[1] = target: T29, PIV1 F literature prefusion comparison (PIV1); assay: BLI, 53C stress
T29 construct: F113G, F114S, A466I, S473I (Stewart-Jones et al. 2018)
Protocol: as §1, §5

PIV1069 = target: T30, PIV1069 (PIV1); assay: BLI, 53C stress
T30 construct: F113G, F114S, A466L, S473L, G134A
Protocol: as §1, §5

PIV1070 = target: T31, PIV1070 (PIV1); assay: BLI, 53C stress
T31 construct: F113G, F114S, A466I, S473I, G134A
Protocol: as §1, §5

B1: hMPV-2 mAb (antibody, V domains shown)
VH: QVQLQQSGAEVKKPGASVKVSCKASGYTFTSYGISWVRQAPGQGLEWMGWISGYNGNTNYAQTFQGTFTMTTDTSTSTAYMELRRLRSGDTAVYYCARDRYYASGSYNGMDVWGQGTTVTVSS
VL: QSALTQPPSASGAPGQRVTVSCSGSSSNVGSSSVYWYQQLPGTAPKLLIYRNNQRPSGVPDRFSGSKSGTSASLAISGLRSEDEADYYCAAWDDSLSGWVFGGGTKLTVLG
notes: human IgG1
Response Shift (hMPV078): 0.86 nm
Response Shift (hMPV079): 0.791 nm
Response Shift (hMPV081): 0.837 nm
Response Shift (hMPV082): 0.854 nm
Response Shift (hMPV083): 0.847 nm
Response Shift (hMPV084): 0.862 nm
Response Shift (hMPV085): 0.766 nm
Response Shift (hMPV086): 0.851 nm
Response Shift (hMPV087): 0.867 nm
Response Shift (hMPV088): 0.878 nm
Response Shift (hMPV089): 0.891 nm
Response Shift (hMPV090): 0.895 nm
Response Shift (hMPV097): 0.923 nm
Response Shift (hMPV A F WT Control): 0.898 nm
Response Shift (hMPV B F WT Control): 0.867 nm
Response Shift (hMPV100): 0.863 nm
Response Shift (hMPV101): 0.707 nm
Response Shift (hMPV102): 0.84 nm
Response Shift (hMPV103): 0.814 nm
Response Shift (hMPV104): 0.85 nm
Response Shift (hMPV105): 0.906 nm
Response Shift (hMPV106): 0.912 nm
Response Shift (hMPV107): 0.89 nm
Response Shift (hMPV108): 0.89 nm
Fold change vs WT (hMPV047): -0.1 fold

B2: PIV1-8 mAb (antibody, V domains shown)
VH: QVQLVQSGAEVKKPGSSVKVSCEASGGTFSNYVISWVRQAPGQGLEWMGGIIPVFATAKYAQKFQGRVTIIADQSTNTAYLELSSLRSDDTAVYFCASVDSGGTWWDAFAIWGQGTMVTVSS
VL: QAVVTQPRSVSGSPGQAVTISCTGTSSDVGGYNYVSWYQHHPGKAPKLIIYDVTKRPSGVPDRFSGSKSGNTASLTISGLQTEYEADYYCCSYAGSYTLVFGGGTKLTVLG
notes: human IgG1; also called hPIV1-8 mAb; hPIV1-8
Response Shift (PIV1042): -0.103 nm
Response Shift (PIV1043): -0.102 nm
Response Shift (PIV1044): -0.122 nm
Response Shift (PIV1045): -0.095 nm
Response Shift (PIV1046): -0.091 nm
Response Shift [1]: 0.717 nm
Response Shift (PIV1069): 0.847 nm
Response Shift (PIV1070): 0.84 nm
